According to the supplement of paper PMC9170038:

Tested on: MS2 coat protein
Assay: apparent KD of MS2 coat protein; designed switch direction (-1 OFF switch, 1 ON switch): -1; higher = weaker reporter binding
How it was run: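 The apparent KD reported per design is the median over clusters of curve fits to normalised cluster fluorescence. The RNA switches were transcribed on Illumina chips by stalled E. coli RNA polymerase. SNAP-549-labelled MS2 coat protein was titrated from 0.7 or 1.5 nM, doubling up to 3 µM, in Tris-HCl pH 7.5 buffer containing KCl, MgCl2, BSA, DTT, tRNA and Tween-20, with no input, 200 uM small-molecule ligand, or an oligonucleotide input.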

[1] = input ligand: microRNA oligo, concentration not stated
[2] = Eterna round: R95, input ligand: microRNA oligo, concentration not stated
[3] = Eterna round: R95, input ligand: FMN 200 uM
[4] = Eterna round: R95, input ligand: none

| Sequence | apparent KD of MS2 coat protein (input ligand: FMN 200 uM) [nM] | apparent KD of MS2 coat protein [1] [nM] | apparent KD of MS2 coat protein (input ligand: none) [nM] | further results |
| --- | --- | --- | --- | --- |
| UACCUGAGGCAAAGCUUUAGGUAAACAUGAGGAUCACCCAUGUAGGAUAUGGUAGGCAAAGCUUACCAGAAGGACAUGAUAAUU [Mat - Exclusion NG 3 - Mod of JL - D35] (Eterna round: R96, puzzle: Exclusion NG 3) | 544 | 79.2 | 80.4 | – |
| UACGGGUCAGGAUAUGCGAGAGAGUGGGAAAUAGGAAGGUAGCAGAAGGGACAUGAGGAUCACCCAUGUGAGGC [JR_Exclu4_Sub099] (puzzle: Exclusion 4) | – | – | – | apparent KD of MS2 coat protein [2]: 23.8 nM |
| UAGAAACAUGAGGAUCACCCAUGUGAGGAUAUGGCCCGCCCGGCGUGAGCUGGUUUUGUCAGAAGGCGCAUAGG [salish99_ex1_r4_020] (Eterna round: R97, puzzle: Exclusion 1) | 115 | – | 71.1 | – |
| UAGAAUCGAGGAUAUACAUGAGGAUCACCCAUGUGUGGCCACACGGUGUGGUCGUCAGGUAGAAGGCGAUUACA [Exclusion 3 - Mod of Jieux's Gilly Gone Silly 23 v.3] (puzzle: Exclusion 3) | – | – | – | apparent KD of MS2 coat protein [3]: 19.9 nM; apparent KD of MS2 coat protein [2]: 22.8 nM; apparent KD of MS2 coat protein [4]: 53.2 nM |
| UAGAUACAUGAGGAUCACCCAUGUGAGGAUAUGAGAAUUAGUUUAAAUGAAUUAAUUUUCAGAAGGCACGGAGG [JR_Ex1_Sub053] (Eterna round: R97, puzzle: Exclusion 1) | 180 | – | 123 | – |
| UAGAUACAUGAGGAUCACCCAUGUGAGGAUAUGAGAAUUAUAUUAAAUGAAUUAAUUUUCAGAAGGCACAAAGG [JR_Ex1_Sub052] (Eterna round: R97, puzzle: Exclusion 1) | 177 | – | 166 | – |
| UAGCAAUGAGAUGGGUUCCACAUGAGGAUCACCCAUGUCCAAGCUCAGAGCUCGUCUUAUUUGAGAUACUUCACUGU [Eternabot (L2) Solution 50] (Eterna round: R97, puzzle: Sensor, turn-off variant 1) | 41.1 | – | 43.4 | – |
| UAGCAUUGCCAAAGGUAGUGCAAAACAUGAGGAUCACCCAUGUAGGAUAUGGUAGGCAAAGCUUACCAGAAGGACAUGAUAAAU [Mat - Exclusion NG 3 - Mod of JL - D18] (Eterna round: R96, puzzle: Exclusion NG 3) | 327 | 39.7 | 54.5 | – |
| UAGGACAAAGGAUAUACGUGUUAUGAUCGGGAUAACAAAAGACAUGAGGAUCACCCAUGUAGAAGGUUGCUUGA [EX2 B.25] (Eterna round: R97, puzzle: Exclusion 2) | 26.2 | – | 17.8 | – |
| UAGGCUUUAGGAUAUGCGUGUUGUAGUCGGCGAUGUGGUUCACAUGAGGAUCACCCAUGUAGAAGGAAAGUUUA [-17.2, -17 kcal, 26% A] (Eterna round: R97, puzzle: Exclusion 2) | 244 | – | 104 | – |
| UAUAAGCUAGGAUAUCGCUGAGUAAACAUGAGGAUCACCCAUGUGGACCAUGAUUGCCACCGAGAAGGAGCGGGAA [Aonat] (puzzle: Exclusion 5) | – | – | – | apparent KD of MS2 coat protein [3]: 119 nM; apparent KD of MS2 coat protein [2]: 53.7 nM; apparent KD of MS2 coat protein [4]: 56.8 nM |
| UAUAAUCGAGGAUAUACAUGAGGAUCACCCAUGUGUUGCCGCGUGAUGUGUUUGUCAGGUAGAAGGCGAUUAUA [Exclusion 3 - Mod of Jieux's Gilly Gone Silly 23 v.9] (puzzle: Exclusion 3) | – | – | – | apparent KD of MS2 coat protein [2]: 153 nM |
| UAUAGUUCAGGAUAUGAUGAAUUAAACAUGAGGAUCACCCAUGUAGAUCCUGAAUUAACAUCAGAAGGGAAUAUUU [JL-ex5-4.49 Brourd mod] (Eterna round: R97, puzzle: Exclusion 5) | 17.4 | – | 14.3 | – |
| UAUAUAUAGUAAGGAUAUAUAUUUAUUUUAUAAAUAGAAGGUACAGACAUGAGGAUCACCCAUGUUAUAAUAUGGACAUGUGGA [JMF's Solution 1] (Eterna round: R96, puzzle: Exclusion NG 1) | – | 45.3 | – | – |
| UAUAUAUAGUAAGGAUAUAUAUUUUUUUUAUAAAUAGAAGGUACAGACAUGAGGAUCACCCAUGUUAUAAUAUGGACAUGUGGA [JMF's Solution 2] (Eterna round: R96, puzzle: Exclusion NG 1) | – | 77.4 | – | – |
| UAUAUAUAGUAAGGAUAUGUAAUUGUUUUAUAAACAGAAGGUACUGACAUGAGGAUCACCCAUGUUUUAGUGUGGGCAUGUAGA [JMF's solution 33] (Eterna round: R96, puzzle: Exclusion NG 1) | – | 45.7 | – | – |
| UAUAUAUAGUAAGGAUAUGUAUAUAUAUUAUAAACAGAAGGUACUGACAUGAGGAUCACCCAUGUUUUAGUGUGGGCAUGUAGA [JMF's solution 58] (Eterna round: R96, puzzle: Exclusion NG 1) | – | 53.8 | – | – |

| Sequence | apparent KD of MS2 coat protein (input ligand: FMN 200 uM) [nM] | apparent KD of MS2 coat protein [1] [nM] | apparent KD of MS2 coat protein (input ligand: none) [nM] | further results |
| --- | --- | --- | --- | --- |
| UAUAUAUAGUAAGGAUAUGUAUAUAUUUUAGAAACAGAAGGUACUGACAUGAGGAUCACCCAUGUUUUAGUGUGGGCAUGUAGA [JMF's solution 67] (Eterna round: R96, puzzle: Exclusion NG 1) | – | 52.7 | – | – |
| UAUAUAUAGUAAGGAUAUGUAUAUAUUUUAUAGACAGAAGGUACUGACAUGAGGAUCACCCAUGUUUUAGUGUGGGCAUGUAGA [JMF's solution 72] (Eterna round: R96, puzzle: Exclusion NG 1) | 105 | 50.4 | 50.5 | – |
| UAUAUAUAGUAAGGAUAUGUAUUAAUUAUAUAAACAGAAGGUACUGACAUGAGGAUCACCCAUGUUUUAGUGUGGGCAUGUAGA [JMF's solution 80] (Eterna round: R96, puzzle: Exclusion NG 1) | – | 65.8 | – | – |
| UAUAUAUAGUAAGGAUAUGUAUUAGUUUUAUAAACAGAAGGUACUGACAUGAGGAUCACCCAUGUUUUAGUGUGGGCAUGUAGA [JMF's solution 74] (Eterna round: R96, puzzle: Exclusion NG 1) | – | 76.6 | – | – |
| UAUAUAUAGUAAGGAUAUGUAUUUAUUUUAGAAACAGAAGGUACUGACAUGAGGAUCACCCAUGUUUUAGUGUGGGCAUGUAGA [JMF's solution 23] (Eterna round: R96, puzzle: Exclusion NG 1) | – | 62 | – | – |
| UAUAUAUAGUAAGGAUAUGUAUUUAUUUUAUAAACAGAAGGUACUGACAUGAGGAUCACCCAUGUUUUAGUGUGGGCAUGUAGA [JMF's solution 4] (Eterna round: R96, puzzle: Exclusion NG 1) | – | 67 | – | – |
| UAUCAUCAUGUAGGAUAUGCGUGGCGAAGCUAUGCAGAAGGACAUGAGGAUCACCCAUGUUCUUGCGUCUGCGUACAGAUGCAA [Mat - Exclusion NG 1 - Mod of JL - D71] (Eterna round: R96, puzzle: Exclusion NG 1) | 218 | 38 | 66.7 | – |
| UAUCCACAUGAGGAUCACCCAUGUCAGGAUAUGCACUAUGGGCCAAGUGGUCCAAGGAGCAGAAGGGACGAGAG [Eternabot (L2) Solution 25] (Eterna round: R97, puzzle: Exclusion 1) | 28.9 | – | 15.2 | – |
| UAUCGGGACUGAGGAUAUUCGUUCGAGCACGAAGAAGAAGGUAGUGUCAGGGACAUGAGGAUCACCCAUGUGAUUUCAGUCCCA [JL ViennaUCT Erinle mod 6] (Eterna round: R96, puzzle: Exclusion NG 1) | 91.4 | 102 | 133 | – |
| UAUGGUUAAGUCAGGAUAUACAUACAGAAAUCUGAGUAGAAGGGACAUGAGGAUCACCCAUGUAUGGUAGUGUU [Ex4 #55] (Eterna round: R97, puzzle: Brourd's mod of Exclusion 4) | 141 | – | 96.2 | – |
| UAUGUGUCAGGAUAUUAGUAGUAAAUAAAUAAAAUUAUUACUGAGAAGGGACAUGAGGAUCACCCAUGUACCUU [JR_Ex4_Sub051] (Eterna round: R97, puzzle: Exclusion 4) | 22.6 | – | 16.2 | – |
| UAUGUGUCAGGAUAUUAGUAGUAAAUGAAUAAAAUUAUUACUGAGAAGGGACAUGAGGAUCACCCAUGUGCCUC [Mat - Exclusion 4 - Eli Mod - D27] (Eterna round: R97, puzzle: Exclusion 4) | 345 | – | 35.2 | – |
| UAUGUUAGCACAGGAUAUUGUUAUUUUUUUUUUCAAGAAGGGUGUACAUGAGGAUCACCCAUGUUAUGGUUUUAUCUUUUACAA [JR_ExcNG1_Sub012] (Eterna round: R96, puzzle: Exclusion NG 1) | 877 | 247 | 809 | – |
| UAUUAAACAAGCAGGUCCCACAUGAGGAUCACCCAUGUGCUCGUCUUAUAAGGUACUGUGACGAAAGUCACGGUACC [Elimod 16 - Jieux - Sensor, turn-off variant 1] (Eterna round: R97, puzzle: Sensor, turn-off variant 1) | 37.2 | – | 40.1 | – |
| UAUUAAACAUAGGAUAUCGAAAAUAUCAUUUAACGAGAAGGAUGAACAUGAGGAUCACCCAUGUGGUAUCAUGG [Mat - Exclusion 6 - JL Mod - D15] (puzzle: Exclusion 6) | – | – | – | apparent KD of MS2 coat protein [3]: 426 nM; apparent KD of MS2 coat protein [2]: 289 nM; apparent KD of MS2 coat protein [4]: 148 nM |
| UAUUAACAAGCAAGAUCCUACAUGAGGAUCACCCAUGUGCUCGUCUUAUAAGGUACUGUGACGAAAGUCACGGUACC [Sensor 3, v1 - 70] (puzzle: Sensor v3, turn-off variant 1) | – | – | – | apparent KD of MS2 coat protein [3]: 294 nM; apparent KD of MS2 coat protein [2]: 42.9 nM; apparent KD of MS2 coat protein [4]: 251 nM |
| UAUUAACAAGUAAGAUCCAACAUGAGGAUCACCCAUGUGCUCGUCUUAUAAGGUACUGUGACGAAAGUCACGGUACC [Eli 87 v1] (Eterna round: R97, puzzle: Sensor, turn-off variant 1) | 21.2 | – | 21.8 | – |
